Results reported in PMC6151440.

Assays:
Assay in all cases: NMR
Settings in all cases: folded, free wild-type ubiquitin
Asp21 = Asp21 (UniProt position 21, EVEPSDTIENV)
Asp32 = Asp32 (UniProt position 32, KAKIQDKEGIP)
Asp39 = Asp39 (UniProt position 39, EGIPPDQQRLI)
Asp58 = Asp58 (UniProt position 58, GRTLSDYNIQK)
Glu16 = Glu16 (UniProt position 16, KTITLEVEPSD)
Glu18 = Glu18 (UniProt position 18, ITLEVEPSDTI)
Glu34 = Glu34 (UniProt position 34, KIQDKEGIPPD)
Glu51 = Glu51 (UniProt position 51, AGKQLEDGRTL)
Glu64 = Glu64 (UniProt position 64, YNIQKESTLHL)
[1] = 298 K, not stated (20 mM d-Tris-HCl buffer, no added salt stated), 20 mM d-Tris-HCl, 1-1.5 mM
[2] = 303 K, 100 mM KCl, cited from earlier work

Substance: Ubiquitin (wild type) (not stated (Homo sapiens inferred))
- pKa (Asp21; [1]): 2.98 ± 0.03
- pKa (Asp21; [2]): 3.1
- pKa (Asp32; [1]): 3.68 ± 0.03
- pKa (Asp32; [2]): 3.8
- pKa (Asp39; [1]): 3.52 ± 0.02
- pKa (Asp39; [2]): 3.6
- pKa (Asp58; [1]): 3.47 ± 0.02
- pKa (Asp58; [2]): 3.7
- pKa (Glu16; [1]): 4.07 ± 0.02
- pKa (Glu16; [2]): 3.9
- pKa (Glu18; [1]): 4.26 ± 0.03
- pKa (Glu18; [2]): 4.3
- pKa (Glu34; [1]): 4.16 ± 0.03
- pKa (Glu34; [2]): 4.5
- pKa (Glu51; [1]): 3.69 ± 0.02
- pKa (Glu51; [2]): 3.8
- pKa (Glu64; [1]): 4.26 ± 0.02
- pKa (Glu64; [2]): 4.5
